Literature values, collected in publication PMC8277102.

Target: EmrA (Escherichia coli) (UniProt P27303)
Test: SPR

EmrA (from UniProt P27303)
Kd: 1.87 µM
